The values that follow come from paper doi:10.1101/2022.10.21.513107 (bioRxiv, 2022).

In one experiment the target is His6MBP-4C/4S E6 (Human papillomavirus type 16, reference …, UniProt P03126, stabilised). The experiment is described as follows: far-Western, overlay or dot blot.
Experiment [1] deals with endogenous HPV16 E6 protein of SiHa cells (Human papillomavirus type 16, SiHa …, UniProt P03126). The experiment is described as follows: immunostaining of cells or tissue.

B1: sdAb C38 (VHH)
VHH: QVQLVESGGGVVQAGGSLRLSCAPSGNIFSINTMGWHRQAPGKQREFVARIRSSGQTNYADSVKGRFTISKDSAKDTVYLQMDNLQPEDSAVYYCTFNSGGWGVERKRRDYWGQGTQVTVSS
Consider B1, for which the binding result with His6MBP-4C/4S E6 was “binds”.

B2: sdAb 2A04 (VHH)
VHH: QVKLEESGGGVVQAGGSLRLSCAPSGNIFSINTMGWHRQAPGKQREFVARIRSSGQTNYADSVKGRFTISKDSAKDTVYLQMDNLQPEDTAVYYCTFNTGGWGVERQRRDYWGQGTQVTVSS
For the molecule B2, the binding result in experiment [1] was “binds”.

B3: sdAb 2A03 (VHH)
VHH: QVQLVESGGGLVQAGGSLRLSCAASGRTSSINIMGWYRQPPGKQREMVATIATGGTTNYAESVKGRFTISRDGAKFVYLQLNDLKPEDTAVYYCNAYRYAVGKNQRAWDIWGQGTQVTVSS
As to B3, in experiment [1], the binding result is “binds”.

B4: sdAb A37 (VHH)
VHH: QVKLEESGGGLVQAGGSLRLSCVASGSTFIITDMAWYRQAPGKQRELVAGITLRGGTNYADSVKGRFTISRDNVKNTVTLQMNSLKPEDTAVYYCNAKVAEWRNRPDYWGQGTQVTVSS
Consider B4, for which, in experiment [1], the binding result is given as “binds”.

B5: sdAb C26 (VHH)
VHH: QVQLVESGGGLVQAGGSLRLSCAASGSIYSINAMGWYRQAPGKQRELVAVITSSGSTNYADAVKGRFTISRDNAKNQVYLQMNSLKPEDTAVYYCHAWSPFRGSFSGDALDAWGQGTQVTVSS
Consider B5, for which the binding result in experiment [1] is recorded as “binds”.
